Usually Kd stands for a measure of binding affinity in units of concentration.

From publication PMC3618186 (2013) come the findings set out here.

The data set concerns the molecule itself. The data set can be described thus: sedimentation equilibrium AUC.

Some results are limits rather than exact numbers.

B1: p150Glued CC1 CC1 (protein)
chain: SKEEEGLRAQVRDLEEKLETLRLKRAEDKAKLKELEKHKIQLEQVQEWKSKMQEQQADLQRRLKEARKEAKEALEAKERYMEEMADTADAIEMATLDKEMAEERAESLQQEVEALKERVDELTTDLEILKAEIEEKGSDGAASSYQLKQLEEQNARLKDALVRMRDLSSSEKQEHVKLQKLMEKKNQELEVVRQQRERLQEELSQAESTIDELKEQVDAALGAEEMVEMLTDRNLNLEEKVRELRETVGDLEAMNEMNDELQENARETELELREQLDMAGARVREAQKRVEAAQETVADYQQTIKKYRQLTAHLQDVNRELTNQQEASVERQQQ
As for B1, the Kd is less than 1 nM.
